Laboratory results published in IntAct's records for PubMed 20723758.

B1: Epidermal growth factor receptor (Drosophila melanogaster (Fruit fly)), P04412 (parent)
chain: MLLRRRNGPCPFPLLLLLLAHCICIWPASAARDRYARQNNRQRHQDIDRDRDRDRFLYRSSSAQNRQRGGANFALGLGANGVTIPTSLEDKNKNEFVKGKICIGTKSRLSVPSNKEHHYRNLRDRYTNCTYVDGNLKLTWLPNENLDLSFLDNIREVTGYILISHVDVKKVVFPKLQIIRGRTLFSLSVEEEKYALFVTYSKMYTLEIPDLRDVLNGQVGFHNNYNLCHMRTIQWSEIVSNGTDAYYNYDFTAPERECPKCHESCTHGCWGEGPKNCQKFSKLTCSPQCAGGRCYGPKPRECCHLFCAGGCTGPTQKDCIACKNFFDEAVSKEECPPMRKYNPTTYVLETNPEGKYAYGATCVKECPGHLLRDNGACVRSCPQDKMDKGGECVPCNGPCPKTCPGVTVLHAGNIDSFRNCTVIDGNIRILDQTFSGFQDVYANYTMGPRYIPLDPERREVFSTVKEITGYLNIEGTHPQFRNLSYFRNLETIHGRQLMESMFAALAIVKSSLYSLEMRNLKQISSGSVVIQHNRDLCYVSNIRWPAIQKEPEQKVWVNENLRADLCEKNGTICSDQCNEDGCWGAGTDQCLTCKNFNFNGTCIADCGYISNAYKFDNRTCKICHPECRTCNGAGADHCQECVHVRDGQHCVSECPKNKYNDRGVCRECHATCDGCTGPKDTIGIGACTTCNLAIINNDATVKRCLLKDDKCPDGYFWEYVHPQEQGSLKPLAGRAVCRKCHPLCELCTNYGYHEQVCSKCTHYKRREQCETECPADHYTDEEQRECFQRHPECNGCTGPGADDCKSCRNFKLFDANETGPYVNSTMFNCTSKCPLEMRHVNYQYTAIGPYCAASPPRSSKITANLDVNMIFIITGAVLVPTICILCVVTYICRQKQKAKKETVKMTMALSGCEDSEPLRPSNIGANLCKLRIVKDAELRKGGVLGMGAFGRVYKGVWVPEGENVKIPVAIKELLKSTGAESSEEFLREAYIMASEEHVNLLKLLAVCMSSQMMLITQLMPLGCLLDYVRNNRDKIGSKALLNWSTQIAKGMSYLEEKRLVHRDLAARNVLVQTPSLVKITDFGLAKLLSSDSNEYKAAGGKMPIKWLALECIRNRVFTSKSDVWAFGVTIWELLTFGQRPHENIPAKDIPDLIEVGLKLEQPEICSLDIYCTLLSCWHLDAAMRPTFKQLTTVFAEFARDPGRYLAIPGDKFTRLPAYTSQDEKDLIRKLAPTTDGSEAIAKPDDYLQPKAAPGPSHRTDCTDEMPKLNRYCKDPSNKNSSTGDDERDSSAREVGVGNLRLDLPVDEDDYLMPTCQPGPNNNNNMNNPNQNNMAAVGVAAGYMDLIGVPVSVDNPEYLLNAQTLGVGESPIPTQTIGIPVMGGPGTMEVKVPMPGSEPTSSDHEYYNDTQRELQPLHRNRNTETRV
partner: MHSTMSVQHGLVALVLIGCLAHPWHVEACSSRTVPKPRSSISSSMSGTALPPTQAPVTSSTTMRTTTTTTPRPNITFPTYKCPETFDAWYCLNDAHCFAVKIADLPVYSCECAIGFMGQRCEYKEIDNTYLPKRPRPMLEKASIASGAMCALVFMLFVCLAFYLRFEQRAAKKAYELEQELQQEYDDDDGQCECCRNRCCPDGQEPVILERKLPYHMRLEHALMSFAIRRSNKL

Variants of: B1
Details: with spitz_drome spi

Variant | effect of a mutation on the interaction
Y341E;N342A;T344D;Y346E;V347A;L348D | decreasing interaction
